# Assay results: patent US20260116970A1 (NMI NATURWISSENSCHAFTLICHES UND MEDIZINISCHES INSTITUT AN …, published 2026)
# Residue numbers refer to the chain shown, from its start. Names may count otherwise.
# T1: murine SIRPα on U2OS cells (mouse, UniProt P97797 32-513)
# T1 construct: whole, on cells; also called mouse SIRPα
# T1 sequence (looked up): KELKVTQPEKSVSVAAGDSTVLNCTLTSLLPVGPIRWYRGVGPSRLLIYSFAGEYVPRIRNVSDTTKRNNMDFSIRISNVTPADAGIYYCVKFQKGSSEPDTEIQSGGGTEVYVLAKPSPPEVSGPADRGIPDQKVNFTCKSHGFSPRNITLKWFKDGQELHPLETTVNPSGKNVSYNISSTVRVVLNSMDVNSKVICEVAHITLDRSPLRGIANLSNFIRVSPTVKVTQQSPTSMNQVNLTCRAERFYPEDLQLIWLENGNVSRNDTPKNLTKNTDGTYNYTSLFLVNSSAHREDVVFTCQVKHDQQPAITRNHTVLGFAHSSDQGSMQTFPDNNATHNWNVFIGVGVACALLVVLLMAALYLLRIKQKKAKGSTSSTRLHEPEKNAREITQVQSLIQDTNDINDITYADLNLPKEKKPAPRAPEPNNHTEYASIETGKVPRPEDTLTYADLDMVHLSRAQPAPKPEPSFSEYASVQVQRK
# B1: hSIRPα nanobody S36 (VHH)
# VHH: EVQLVESGGGLVQPGGSLRLSCAASGFTLDYYAIGWFRQVPGKEREGVSCISSDGGGNTYYADSVKGRFTISRDNAKNTVYLQMNSLKPEDSAVYSCAAGPTYYSGSYCRDPHSDYDYWGQGTQVTVSS
# notes: also called Nb S36; hSIRPα-S36 Nb
# B2: hSIRPα nanobody S45 (VHH)
# VHH: HVQLVESGGGLVQPGGSLRLSCAARGFSFRDSAMSWARQAPGKGLEWVGAIYSDGSTVYEKSVKGRFTISRDNAKNTMYLQMHSLKPEDSARYYCAPKGVVADEGDYSGQGTLVTVSS
# notes: also called Nb S45
# B3: hSIRPα nanobody S44 (VHH)
# VHH: QVQLQESGGGLVQPGGSLRLACAASGFTFSSYDMSWVRQAPGKGLEWVSDIKSGGGRTYYADSVKGRFTISRDNAKNTVYLQMNSLKPEDTAVYYCGSLDNSGAYTGGGQGSQVTVSS
# notes: also called Nb S44
# B4: hSIRPα nanobody S8 (VHH)
# VHH: QVQLVESGGGLVQPGGSLRLSCADSEFRLDEYATGWFRQAPGKEREGVACISRSGSNTKYTDSVKGRFTISRDNAKKTVYLQMNSLKPEDTAVYYCAADLTSHYLSCSSYTDYNSWGQGTQVTVSS
# notes: Purified by IMAC; the tag is not described; also called Nb S8
# B5: hSIRPα nanobody S12 (VHH)
# VHH: QVQLVESGGGLVQPGGSLRLSCLVSGFSSSYYAIGWFRQAPGKEREGVSCITRSGDTTNYADSVKGRFTISRDDARNTVYLQMNSLKTEDTAVYSCALWAWAGSGRLRCTASEYGHWGQGTQVTVSS
# notes: also called Nb S12
# B6: hSIRPα nanobody S33 (VHH)
# VHH: EVQLVESGGGLVQPGGSLRLSCTTSGFTLDYYSVGWFRQAPGKEREGVSCITASGSSTNYANSVKGRFTISRDKVKNTVYLQMSSLKPEDTAVYYCAAEPCTVVAGILQAPTSDFGSWGQGTQVTVSS
# notes: also called Nb S33
# B7: hSIRPα nanobody S7 (VHH)
# VHH: HVQLVESGGGLVQVGDSLRLSCAPSGRTFRAYAMAWFRQAPGKEREFVAAIRWIGGTPSYKDSVKGRFTISRDNARNTFYLQMNSLEPQDTGVYYCAAEETQKGSGLGHDGRHYDYWGQGTPVTVSS
# notes: Expressed from pHEN6 in E. coli and purified by IMAC; the tag is not described; also called Nb S7
# B8: hSIRPα nanobody S41 (VHH)
# VHH: HVQLVESGGGLVQPGGSLRLSCAASGETLDYYAIGYVRQAPGKEREGVSCISSRGDNTNYADSVKGRFTISRDNANNTVYLQMNSLKPEDTAVYYCVAIKDSWQNYYCSVGWVEYDVWGQGTQVTVSS
# notes: The single assignment S41 = 26 follows only from the listing order; also called Nb S41
# B9: chelator conjugated hSIRPα-S36K>R Nb (VHH)
# VHH: B1 VHH with K43R, K66R, K77R, K88R
# modifications: p-NCS-benzyl-NODA-GA chelator conjugated to the single remaining primary NH2-group at the N-terminus
# Target: T2, hSIRPγ on U2OS cells (human, UniProt Q9P1W8 29-387)
# T2 construct: whole, on cells; also called SIRP gamma
# T2 sequence (Q9P1W8 29-387): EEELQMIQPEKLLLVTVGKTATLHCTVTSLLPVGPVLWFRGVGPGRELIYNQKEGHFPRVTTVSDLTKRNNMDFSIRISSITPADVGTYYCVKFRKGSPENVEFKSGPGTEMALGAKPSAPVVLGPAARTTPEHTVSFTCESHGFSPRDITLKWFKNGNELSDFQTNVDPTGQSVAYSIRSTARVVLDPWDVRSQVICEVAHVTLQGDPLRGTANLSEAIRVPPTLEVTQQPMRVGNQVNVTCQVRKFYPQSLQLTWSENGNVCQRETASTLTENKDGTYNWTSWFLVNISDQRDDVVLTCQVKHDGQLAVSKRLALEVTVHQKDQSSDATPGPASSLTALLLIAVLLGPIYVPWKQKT
# Test: immunofluorescence on U2OS cells transiently expressing hSIRPγ
# Protocol: (§1) Stably expressing hSIRPα U2OS cells, U2OS wt or U2OS cells transiently expressing individual hSIRPα domains (D1-3) with SPOT-Tag or different hSIRP family members (hSIRPα-V1, hSIRPα-V2, hSIRPβ1, hSIRPγ, murine SIRPα) were plated at ˜10,000 cells per well of a μClear 96-well plate (Greiner Bio One, cat. #655090) and cultivated overnight at standard conditions. For imaging, medium was replaced by live-cell visualization medium DMEMgfp-2 (Evrogen, cat. #MC102) supplemented with 10% FBS, 2 mM L-glutamine, 2 μg/ml Hoechst33258 (Sigma Aldrich) for nuclear staining. 1-100 nM of unlabeled hSIRPα Nbs in combination with 2.5 μg/ml anti-VHH secondary Cy5 AffiniPure Goat Anti-Alpaca IgG (Jackson Immuno Research) were added and incubated for 1 h at 37° C. […]
# (§2) Moreover, with hSIRPαV1 and hSIRPαV2, two isoforms are expressed either homozygously (v1/v1 or v2/v2) or heterozygously (v1/v2), and the frequency of distribution varies between human subpopulations (Sim et al., “Discovery of high affinity, pan-allelic, and pan-mammalian reactive antibodies against the myeloid checkpoint receptor SIRPα”, MAbs. Taylor & Francis (2019) pp. 1036-1052). To address the question of specificity, hSIRPβ1, hSIRPγ or the hSIRPα polymorphisms hSIRPα-V1 and hSIRPα-V2 were transiently expressed in U2OS cells and their recognition was analyzed by the selected hSIRPα Nbs by immunofluorescence staining. […]
row,binding result,Binder
1,binds,B1

# Target: T3, hSIRPβ1 on U2OS cells (human, UniProt O00241 30-398)
# T3 construct: whole, on cells; also called SIRP beta
# T3 sequence (O00241 30-398): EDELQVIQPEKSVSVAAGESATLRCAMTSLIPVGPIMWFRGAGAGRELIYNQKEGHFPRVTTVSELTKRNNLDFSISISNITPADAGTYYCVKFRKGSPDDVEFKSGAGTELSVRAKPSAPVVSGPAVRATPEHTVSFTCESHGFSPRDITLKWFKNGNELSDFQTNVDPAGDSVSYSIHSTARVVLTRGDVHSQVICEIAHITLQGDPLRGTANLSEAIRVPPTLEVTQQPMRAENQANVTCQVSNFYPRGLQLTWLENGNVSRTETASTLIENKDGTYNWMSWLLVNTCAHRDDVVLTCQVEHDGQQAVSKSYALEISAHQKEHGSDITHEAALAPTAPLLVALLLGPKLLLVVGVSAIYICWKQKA
# Test: immunofluorescence on U2OS cells transiently expressing hSIRPβ1
# Protocol: as §1, §2
row,binding result,Binder
1,binds,B1

# Target: T1, murine SIRPα on U2OS cells
# Test: live-cell immunofluorescence on U2OS cells transiently expressing murine SIRPα
# Protocol: (§3) Stably expressing hSIRPα U2OS cells, U2OS wt or U2OS cells transiently expressing individual hSIRPα domains (D1-3) with SPOT-Tag or different hSIRP family members (hSIRPα-V1, hSIRPα-V2, hSIRPβ1, hSIRPγ, murine SIRPα) were plated at ˜10,000 cells per well of a μClear 96-well plate (Greiner Bio One, cat. #655090) and cultivated overnight at standard conditions. For imaging, medium was replaced by live-cell visualization medium DMEMgfp-2 (Evrogen, cat. #MC102) supplemented with 10% FBS, 2 mM L-glutamine, 2 μg/ml Hoechst33258 (Sigma Aldrich) for nuclear staining. 1-100 nM of unlabeled hSIRPα Nbs in combination with 2.5 μg/ml anti-VHH secondary Cy5 AffiniPure Goat Anti-Alpaca IgG (Jackson Immuno Research) were added and incubated for 1 h at 37° C. For control staining hSIRPα Ab PE (SE5A5, BioLegend) and bivSPOT-Nb labeled with AlexaFluor647 (AF647) were used. Images were acquired with a MetaXpress Micro XL system (Molecular Devices) at 20× or 40× magnification.
# (§4) Moreover, with hSIRPαV1 and hSIRPαV2, two isoforms are expressed either homozygously (v1/v1 or v2/v2) or heterozygously (v1/v2), and the frequency of distribution varies between human subpopulations (Sim et al., “Discovery of high affinity, pan-allelic, and pan-mammalian reactive antibodies against the myeloid checkpoint receptor SIRPα”, MAbs. Taylor & Francis (2019) pp. 1036-1052). To address the question of specificity, hSIRPβ1, hSIRPγ or the hSIRPα polymorphisms hSIRPα-V1 and hSIRPα-V2 were transiently expressed in U2OS cells and their recognition was analyzed by the selected hSIRPα Nbs by immunofluorescence staining. In addition, murine SIRPα was included to evaluate potential cross-reactivity between human and mouse SIRPα variants (FIG. 3A; data not shown).
row,binding result,Binder
1,no binding (tested: 1-100 nM),B2
2,no binding (tested: 1-100 nM),B1
3,no binding (tested: 1-100 nM),B3
4,no binding (tested: 1-100 nM),B4
5,no binding (tested: 1-100 nM),B5
6,no binding (tested: 1-100 nM),B6
7,no binding (tested: 1-100 nM),B7

# Target: T4, recombinant hSIRPα (extracellular portion) (human, UniProt P78324 31-373, biotinylated with Sulfo-NHS-LC-LC-Biotin where immobilised on streptavidin sensors)
# T4 construct: extracellular domain; The limits aa31-370 are stated for the immunogen; The BLI and HDX text says only 'recombinant hSIRPα' / 'biotinylated hSIRPα'; also called biotinylated hSIRPα
# T4 sequence (P78324 31-373): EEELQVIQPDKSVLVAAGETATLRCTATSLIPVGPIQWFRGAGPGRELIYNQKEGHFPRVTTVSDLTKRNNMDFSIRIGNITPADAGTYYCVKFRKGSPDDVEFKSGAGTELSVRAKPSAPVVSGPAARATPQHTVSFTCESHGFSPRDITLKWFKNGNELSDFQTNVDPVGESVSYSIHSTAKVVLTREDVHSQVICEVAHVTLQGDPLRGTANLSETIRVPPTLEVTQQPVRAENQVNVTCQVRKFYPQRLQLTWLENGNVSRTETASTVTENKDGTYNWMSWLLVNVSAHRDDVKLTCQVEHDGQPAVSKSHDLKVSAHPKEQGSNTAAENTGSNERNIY
# Test: BLI, biotinylated hSIRPα immobilised on streptavidin biosensors, Nb in solution, global 1:1 fit
# Protocol: (§5) Biotinylated hSIRPα was immobilized on streptavidin biosensors.
# (§6) Analysis of binding kinetics of hSIRPα specific Nbs was performed using the Octet RED96e system (Sartorius) as per the manufacturer's recommendations. In brief, […] of biotinylated hSIRPα diluted in Octet buffer (PBS, 0.1% BSA, 0.02% Tween20) was immobilized on streptavidin coated biosensor tips (SA, Sartorius) for 40 s. In the association step, a dilution series of Nbs ranging from 0.625-320 nM were reacted for 240 s followed by dissociation in Octet buffer for 720 s. Every run was normalized to a reference run applying Octet buffer for association. Data were analyzed using the Octet Data Analysis HT 12.0 software applying the 1:1 ligand-binding model and global fitting. For epitope binning two consecutive association steps with different Nbs were performed. By analyzing the binding behavior of the second Nb, conclusions about shared epitopes were drawn. For the hCD47 competition assay hCD47 was biotinylated and immobilized on SA biosensors followed by the application of pre-mixed solutions containing hSIRPα (20 nM) and Nb (250 nM). As control the hCD47-competing Ab KWAR23 (5 nM) was used.
Kd [nM],koff [s⁻¹],kon [M⁻¹ s⁻¹],Binder
2.53,0.00164,646000,B2
0.12,0.0002,1.52e+06,B1
4.61,0.00915,1.99e+06,B3
0.46,0.0009,2.04e+06,B4
25.9,0.0127,490000,B5
20,0.00544,267000,B6
5.65,0.00383,678000,B8
20,0.0123,610000,B7

# Target: T4, recombinant hSIRPα (extracellular …)
# Test: BLI, biotinylated hSIRPα immobilised on streptavidin biosensors, S36 at 0.625-5 nM, global 1:1 fit
# Protocol: as §5, §6
row,Kd [nM],Binder
1,0.12,B1

# Target: T2, hSIRPγ on U2OS cells
# Test: live-cell immunofluorescence on U2OS cells transiently expressing hSIRPγ, detection with anti-VHH-Cy5
# Protocol: (§7) Data are presented as mean±SD of three technical replicates.
# as §3, §4
row,Binder,binding result
1,B2,no binding (tested: not on the sheet; 1-100 nM per paragraph 140)
2,B6,no binding (tested: not on the sheet; 1-100 nM per paragraph 140)
3,B7,no binding (tested: not on the sheet; 1-100 nM per paragraph 140)

# Target: T5, hSIRPα-V2 on U2OS cells (human, UniProt P78324 31-504)
# T5 construct: whole, on cells
# T5 sequence (P78324 other isoform, or with tags, fused parts or gaps limits assumed): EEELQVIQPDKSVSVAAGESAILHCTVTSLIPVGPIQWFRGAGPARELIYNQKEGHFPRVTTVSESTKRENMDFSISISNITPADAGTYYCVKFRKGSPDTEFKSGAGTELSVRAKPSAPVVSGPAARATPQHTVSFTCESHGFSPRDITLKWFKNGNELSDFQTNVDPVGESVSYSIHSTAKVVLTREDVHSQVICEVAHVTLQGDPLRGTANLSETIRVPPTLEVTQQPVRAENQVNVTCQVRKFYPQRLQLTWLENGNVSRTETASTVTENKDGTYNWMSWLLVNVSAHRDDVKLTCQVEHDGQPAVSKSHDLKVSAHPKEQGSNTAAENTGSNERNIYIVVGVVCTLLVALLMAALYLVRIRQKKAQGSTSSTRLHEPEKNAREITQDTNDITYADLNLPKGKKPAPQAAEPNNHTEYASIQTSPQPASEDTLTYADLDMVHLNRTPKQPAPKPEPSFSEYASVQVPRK
# Test: live-cell immunofluorescence on U2OS cells transiently expressing hSIRPα-V2, detection with anti-VHH-Cy5
# Protocol: as §7
# as §1, with “staining.” for “staining. 1-100 nM of unlabeled hSIRPα Nbs in combination with 2.5 μg/ml anti-VHH secondary Cy5 AffiniPure Goat Anti-Alpaca IgG (Jackson Immuno Research) were added and incubated for 1 h at 37° C.”
# as §2
row,Binder,binding result
1,B3,no binding (tested: not on the sheet; 1-100 nM per paragraph 140)
2,B5,no binding (tested: not on the sheet; 1-100 nM per paragraph 140)

# Target: T4, recombinant hSIRPα (extracellular …)
# Test: BLI, biotinylated hSIRPα immobilised on streptavidin biosensors, chelator conjugated S36K>R at 1.25-10 nM
# Protocol: Biotinylated hSIRPα was immobilized on streptavidin biosensors. Kinetic measurements were performed by using four concentrations of purified Nbs ranging from 1.25 nM to 10 nM; (E) Stability analysis of chelator conjugated hSIRPα-S36_{K>R} Nb by nanoDSF as fluorescence ratios (350 nm/330 nm) and light intensity loss due to scattering illustrated as first derivative before (To) and after 10 days of accelerated aging at 37° C. (T₁₀); and (F) Phagocytosis of DLD-1 cells by human monocyte-derived macrophages treated with anti-EGFR cetuximab and chelator conjugated hSIRPα-S36_{K>R} Nb. Analysis of phagocytosis of hSIRPα-S36_{K>R} Nb in combination with cetuximab of three different donors (K1, K2, K3). Data are presented as mean±SD of three technical replicates. And
# Analysis of binding kinetics of hSIRPα specific Nbs was performed using the Octet RED96e system (Sartorius) as per the manufacturer's recommendations. In brief, […] of biotinylated hSIRPα diluted in Octet buffer (PBS, 0.1% BSA, 0.02% Tween20) was immobilized on streptavidin coated biosensor tips (SA, Sartorius) for 40 s. In the association step, a dilution series of Nbs ranging from 0.625-320 nM were reacted for 240 s followed by dissociation in Octet buffer for 720 s. […] Data were analyzed using the Octet Data Analysis HT 12.0 software applying the 1:1 ligand-binding model and global fitting. […]
row,Kd [nM],Binder
1,0.19,B9
